Columns and labels:
[1] = biological target: T1, PfMyoA motor domain (amino acids 1-K768) with a T417D mutation (Plasmodium falciparum, UniProt Q8IDR3 1-768, T417D); assay: cryo-EM structure; PfMyoA motor domain T417D incubated in solution with JAS-stabilized PfAct1 filaments, vitrified within 15 min; nucleotide-free (Rigor) state; helical reconstruction at 3.8 Å; details: both partners purified
T1 construct: Plasmodium falciparum myosin A (PfMyoA) heavy chain, motor domain, amino acids 1-K768, with the phosphomimetic mutation T417D (TEDS site, HCM loop); Residue K768 is followed by a Gly-Ser linker and the C-terminal FLAG tag; Nucleotide-free (Rigor) in the structure; also called PfMD; PfMyoA motor-domain construct with a T417D mutation
T1 sequence: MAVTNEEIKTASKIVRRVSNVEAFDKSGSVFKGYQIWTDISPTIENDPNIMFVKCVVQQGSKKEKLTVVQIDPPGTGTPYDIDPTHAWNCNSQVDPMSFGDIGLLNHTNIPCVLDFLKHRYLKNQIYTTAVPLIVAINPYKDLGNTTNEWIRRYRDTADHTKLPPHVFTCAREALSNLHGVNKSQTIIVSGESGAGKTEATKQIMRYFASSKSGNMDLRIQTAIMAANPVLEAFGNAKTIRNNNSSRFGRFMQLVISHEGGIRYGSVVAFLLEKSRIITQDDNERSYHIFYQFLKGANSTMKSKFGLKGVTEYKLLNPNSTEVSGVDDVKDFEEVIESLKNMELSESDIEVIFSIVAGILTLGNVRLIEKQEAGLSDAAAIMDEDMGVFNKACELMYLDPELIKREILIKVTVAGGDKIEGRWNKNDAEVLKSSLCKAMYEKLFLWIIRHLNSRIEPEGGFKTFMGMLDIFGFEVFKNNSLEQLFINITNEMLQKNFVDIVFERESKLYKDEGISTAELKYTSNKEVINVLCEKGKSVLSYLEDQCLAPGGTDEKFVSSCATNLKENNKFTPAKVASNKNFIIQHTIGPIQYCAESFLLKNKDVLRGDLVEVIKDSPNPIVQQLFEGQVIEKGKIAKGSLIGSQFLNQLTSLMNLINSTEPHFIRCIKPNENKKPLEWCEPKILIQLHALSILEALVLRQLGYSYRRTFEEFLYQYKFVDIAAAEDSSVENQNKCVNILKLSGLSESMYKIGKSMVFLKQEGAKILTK

[2] = biological target: the molecule itself; assay: as above

B1: PfActin-1 filaments (natural protein)
chain: not shown
notes: Plasmodium falciparum actin-1; ends at the final native Phe after chymotrypsin cleavage; Filamentous; unstabilised filaments were used in one motility condition; also called PfAct1; P. falciparum actin 1; not shown: His6, C-terminal, cleaved
binding result [1]: binds
binding result [2]: binds
